In PMC3462793, “Erioflorin Stabilizes the Tumor Suppressor Pdcd4 by Inhibiting Its Interaction with the E3-ligase β-TrCP1” (PLoS ONE, 2012):

Target: T1, Programmed cell death 4 (Pdcd4), endogenous in HEK293 cells (human (endogenous in HEK293), UniProt Q53EL6 1-469)
T1 sequence (looked up): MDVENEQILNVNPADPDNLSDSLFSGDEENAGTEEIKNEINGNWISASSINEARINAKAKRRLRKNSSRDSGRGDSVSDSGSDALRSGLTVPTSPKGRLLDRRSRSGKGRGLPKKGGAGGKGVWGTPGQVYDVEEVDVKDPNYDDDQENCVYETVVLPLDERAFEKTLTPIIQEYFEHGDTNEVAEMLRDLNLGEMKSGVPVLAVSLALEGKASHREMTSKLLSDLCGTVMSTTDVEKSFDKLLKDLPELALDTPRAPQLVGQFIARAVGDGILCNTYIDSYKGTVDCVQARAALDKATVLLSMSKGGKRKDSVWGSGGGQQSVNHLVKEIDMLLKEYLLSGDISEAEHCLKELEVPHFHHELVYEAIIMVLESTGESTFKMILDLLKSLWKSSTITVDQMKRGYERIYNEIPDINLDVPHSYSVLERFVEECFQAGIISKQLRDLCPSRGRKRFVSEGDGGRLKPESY
Experiment: cell-based or functional assay

B1: β-transducin repeat-containing protein 1 (β-TrCP1), overexpressed in HEK293 cells (natural protein, UniProt Q9Y297 1-605, looked up)
chain: MDPAEAVLQEKALKFMCSMPRSLWLGCSSLADSMPSLRCLYNPGTGALTAFQNSSEREDCNNGEPPRKIIPEKNSLRQTYNSCARLCLNQETVCLASTAMKTENCVAKTKLANGTSSMIVPKQRKLSASYEKEKELCVKYFEQWSESDQVEFVEHLISQMCHYQHGHINSYLKPMLQRDFITALPARGLDHIAENILSYLDAKSLCAAELVCKEWYRVTSDGMLWKKLIERMVRTDSLWRGLAERRGWGQYLFKNKPPDGNAPPNSFYRALYPKIIQDIETIESNWRCGRHSLQRIHCRSETSKGVYCLQYDDQKIVSGLRDNTIKIWDKNTLECKRILTGHTGSVLCLQYDERVIITGSSDSTVRVWDVNTGEMLNTLIHHCEAVLHLRFNNGMMVTCSKDRSIAVWDMASPTDITLRRVLVGHRAAVNVVDFDDKYIVSASGDRTIKVWNTSTCEFVRTLNGHKRGIACLQYRDRLVVSGSSDNTIRLWDIECGACLRVLEGHEELVRCIRFDNKRIVSGAYDGKIKVWDLVAALDPRAPAGTLCLRTLVEHSGRVFRLQFDEFQIVSSSHDDTILIWDFLNDPAAQAEPPRSPSRTYTYISR
endogenous Pdcd4 protein level (western densitometry, relative to the DMSO control) in HEK293 cells treated 8 h with TPA (10 nM) and erioflorin (0.625–5 µM): 121 % of DMSO control
